The source of these data is article PMC11257959, “Structural basis of the histone ubiquitination read–write mechanism of RYBP–PRC1” (Nature Structural & Molecular Biology, 2024).

In experiment [1] the target is T1, Drosophila melanogaster histone H4 (D. melanogaster, UniProt P84040 1-103).
T1 construct: histone H4, D. melanogaster; Stood within the nucleosome; source: bought: The Histone Source (Colorado State University); in the reconstituted nucleosome
In words: cryo-EM structure; vPRC1:Nuc; Nuc/vPRC1 ratio of 1:10 in UB buffer, 1 h at 4 °C; biotinylated nucleosomes bound to streptavidin-coated grids. Particulars: both partners purified.

Experiment [2] concerns the target T2, human RING1B, full length (human, UniProt Q99496 1-336).
T2 construct: In the cryo-EM sample a subunit of vPRC1; residues 15-115 were built; source: High Five insect cells (baculovirus), coexpressed with BMI1, purified; not shown: twin strep-tag, N-terminal, cleaved
T2 sequence (looked up): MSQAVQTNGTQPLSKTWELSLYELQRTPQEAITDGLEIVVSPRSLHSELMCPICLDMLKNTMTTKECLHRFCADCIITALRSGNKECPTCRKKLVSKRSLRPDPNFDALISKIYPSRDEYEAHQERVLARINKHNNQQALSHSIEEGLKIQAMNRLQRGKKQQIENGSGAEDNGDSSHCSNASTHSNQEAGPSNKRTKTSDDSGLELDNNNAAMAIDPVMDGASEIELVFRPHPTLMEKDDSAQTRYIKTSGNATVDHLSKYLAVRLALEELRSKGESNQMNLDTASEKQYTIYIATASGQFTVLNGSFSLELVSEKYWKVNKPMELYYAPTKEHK
In words: SEC; RING1B and BMI1 coexpressed in insect cells from one vector, Ni-NTA (His tag on BMI1), tag cleavage, SEC (S200). The note with it: partners not purified. On the technique in general: In gel filtration, larger molecules generally elute earlier.

In the next experiment the target is T3, human ubiquitin (human, UniProt P0CG47 1-76, conjugated to H2A).
T3 construct: human ubiquitin, the cut product of the precursor; Stood as the ubiquitin moiety of H2Aub1 in the nucleosome; source: bought: Boston Biochem; conjugated to H2A of the nucleosome in vitro
In words: cryo-EM structure; vPRC1:Nuc_(H2Aub1); Nuc_(H2Aub1)/vPRC1 ratio of 1:5 in UB buffer, 1 h at 4 °C; biotinylated nucleosomes bound to streptavidin-coated grids, two additional washes. The note with it: both partners purified.

For experiment [3], the target named is T4, RING1B:BMI1 full-length heterodimer (human, UniProt Q99496 1-336; P35226 1-326).
T4 construct: also called RING1B:BMI1 dimer; source: High Five insect cells (baculovirus, coexpressed from one vector), purified (Ni-NTA, twin strep-tag cleavage, SEC); not shown: twin strep-tag, N-terminal, cleaved; His6, C-terminal, kept
T4 sequence (looked up) 1: T2 sequence (looked up)
T4 sequence (looked up) 2: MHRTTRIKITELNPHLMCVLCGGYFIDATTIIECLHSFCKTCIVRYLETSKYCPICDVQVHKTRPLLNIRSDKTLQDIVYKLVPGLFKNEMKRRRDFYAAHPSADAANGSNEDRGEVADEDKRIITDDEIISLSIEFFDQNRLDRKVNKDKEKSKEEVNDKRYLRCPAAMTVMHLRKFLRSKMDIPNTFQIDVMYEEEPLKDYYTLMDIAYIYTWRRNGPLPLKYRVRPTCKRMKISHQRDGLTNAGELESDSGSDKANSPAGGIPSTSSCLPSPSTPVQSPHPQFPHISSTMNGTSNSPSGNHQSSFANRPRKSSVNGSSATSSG
In words: SEC; purified RYBP mixed with purified RING1B:BMI1 at a 1:1 molar ratio, cation exchange, then SEC in 25 mM Tris-HCl pH 7, 150 mM NaCl, 10% glycerol, 2 mM DTT. The note with it: both partners purified.

Changes are numbered by the printed parent chain. Numbers in names are those of the source.

B1: human BMI1, full length (natural protein, UniProt P35226 1-326, looked up)
chain: T4 sequence (looked up) 2
notes: In the cryo-EM sample a subunit of vPRC1; residues 3-107 were built; also called BIM1; source: High Five insect cells (baculovirus), coexpressed with RING1B, purified; not shown: His6, C-terminal, kept
On to B1, for which the binding result in experiment [1] and in experiment [2] was “binds” in each case.

B2: human RYBP, full length (natural protein, UniProt Q8N488 1-228, looked up)
chain: MTMGDKKSPTRPKRQAKPAADEGFWDCSVCTFRNSAEAFKCSICDVRKGTSTRKPRINSQLVAQQVAQQYATPPPPKKEKKEKVEKQDKEKPEKDKEISPSVTKKNTNKKTKPKSDILKDPPSEANSIQSANATTKTSETNHTSRPRLKNVDRSTAQQLAVTVGNVTVIITDFKEKTRSSSTSSSTVTSSAGSEQQNQSSSGSESTDKGSSRSSTPKGDMSAVNDESF
notes: In the cryo-EM sample it stood as a subunit of vPRC1; residues 23-58 were built; source: High Five insect cells (baculovirus), purified (Ni-NTA, His tag cleavage, reverse Ni-NTA); not shown: His6, N-terminal, cleaved
Regarding B2, the binding result (with human ubiquitin; in experiment [3]) was “binds” in each case.

B3: RYBP_(R47A/R53A/R56A) (natural protein, human, UniProt Q8N488 1-228, looked up)
chain: B2 chain with R47A, R53A, R56A
notes: source: High Five insect cells (baculovirus), purified following the same procedure as the wild-type protein; not shown: His6, N-terminal, cleaved
On to B3, for which the binding result in experiment [3] is on record as “binds”.

B4: RYBP_(T31A/F32A) (natural protein, human, UniProt Q8N488 1-228, looked up)
chain: B2 chain with T31A, F32A
notes: as for B3
As for B4, the binding result in experiment [3] is given as “binds”.
